Target: GDP-L-galactose phosphorylase 1 (GGP1) with His6, expressed in E. coli (Solanum lycopersicum (tomato))

## PAS/LOV protein (PLP) with His6, expressed in tobacco (natural protein)
  inhibition of GGP activity by PLP incubated 2 h in darkness before mixing: 86%
